Results on 1 substance are retold here after publication PMC7325957.

The assay concerns the target NttE from L. pneumophila strain 130b, His6-tagged (residues 1 to 269; minus its N-terminal signal sequence) (Legionella pneumophila strain 130b). Kind of assay: SEC-SAXS.

“NttE from L. pneumophila strain 130b, His6-tagged (residues 1 to 269; minus its N-terminal signal sequence) (natural protein)” gave a stoichiometry N of 2.
